Laboratory results: patent US9217013B2, “Treatment of amyloidoses using myelin basic protein and fragments thereof” (The Research Foundation for the State University of New York, priority 2008, dated 2015)

What was measured:
Aβ42WT = Aβ42WT (Homo sapiens, UniProt P05067); assay: Circular dichroism spectroscopy of Aβ42WT β-sheet formation; format: biochemical; conditions: MBP added to incubates, 37° C.
From the text: Aβ42 (□), MBP (□), Aβ42 with MBP (□).
The formation of β-sheet fibrils may be evaluated by circular dichroism (“CD”) spectroscopy. The technique is based on circularly polarized light. The secondary structure of proteins tends to “distort” the polarization toward the elliptical. The degree and direction of the distortion over a range of wavelengths produces spectra that are characteristic of the protein under examination and its secondary structure. One such method, suitable for use in embodiments of the present invention, is summarized below:
Preferably, purified protein is placed in detergent-free, low-salt buffer in a cuvette having a lightpath length on the order of 1 mm. The optimal concentration of the protein may be determined by standard techniques well-known in the art, and confirmed by comparing the spectrum over a range of concentrations, using an instrument (e.g., JASCO) and cuvette properly calibrated with a standard such as d-10-camphorsulfonic acid in water. To acquire a CD spectrum, the sample is scanned over a wavelength range of about 180-260 nm (spectral width approx. 1 nm). A suitable scan rate is of the order of 100 nm/min for a response time of about 2 seconds. Preferably, however, slower scan speeds (e.g., 5 nm/min, response time around 20 seconds) are used to reduce noise.

[1] = target: Dutch/Iowa CAA mutant Aβ40 (Aβ40DI) (Homo sapiens, UniProt P05067, D694N/E693Q); assay: Surface plasmon resonance binding to immobilized Dutch/Iowa Aβ40
Protocol: All runs were performed on a Biacore 2000 instrument using 10 mM HEPES (pH 7.4), 150 mM NaCl, 3 mM EDTA, and 0.005% (v/v) Tween 20 as running buffer and diluent. Streptavidiri was conjugated to the surface of three flow cells of a CM5 chip at 10 μl/min using amine coupling chemistry to a final average response level of 1890.2 response units. N-terminally biotinylated Aβ peptides were resuspended in Me2SO to 2.5 mM and serially diluted to 13 nM immediately before application. Biotinylated Aβ40WT and Aβ40DI were bound to individual flow cells at 10 μl/min to achieve an average relative response level of 157.1 response units, leaving flow cell 1 as reference. […] The resultant Rmax of these surfaces was ˜700 response units with MBP as analyte. Purified MBP was passed over all four flow cells at 5, 10, 25, 50, and 100 nM at a flow rate of 30 μl/min for kinetic measurements. […] Surfaces were regenerated with 0.2 M glycine (pH 2.0) and 150 mM NaCl between runs. The resulting sensorgrams were analyzed by BIAanalysis software. Triplicate concentration series were used for each surface.
Using recombinant methodology to express and purify regions of the 18.5 kDa human MBP protein and test their abilities to bind Aβ and inhibit fibrillogenesis, cDNAs were prepared for the following regions of MBP shown in FIG. 3. The cDNAs for MBP fragments were cloned into pTYB11 plasmids containing an ampr gene and transformed into competent E. coli BL21 DE3 cells. Expression of cDNAs in this vector results in a fusion protein containing a chitin binding domain (CBD) as well as a self-cleavable intein protein from S. cerevisiae. CBD-Intein-MBP fusion proteins were captured on chitin beads from the resulting cell lysates. MBP protein fragments were eluted by inducing the cleavage between the C-terminus of the intein and the N-terminus of MBP by exposure to dithiothreitol. […] MBP was further purified by cation exchange chromatography on CM52 resin, resulting in a >95% pure protein preparations. Each of the four MBP fragments were tested for binding to Dutch/Iowa Aβ40 and wild-type Aβ42 by surface plasmon resonance (FIG. 4).

Dutch/Iowa Aβ40 (Aβ40DI) = Dutch/Iowa Aβ40 (Aβ40DI) (Homo sapiens, UniProt P05067, D694N/E693Q); assay: TEM and single-touch AFM of Aβ40DI fibril formation; format: biochemical
Protocol: FIG. 18 Inhibition of Aβ40DI fibril formation by MBP as assessed by TEM and single-touch AFM analyses. Aβ40DI peptides at a concentration of 12.5 μM in PBS in the absence or presence of 1.56 μM MBP. Samples were imaged at 6 h by TEM (A and B) and at 3 h by single-touch AFM (D and E). Aliquots of 1.56 μM MBP alone were imaged by TEM (C) and by AFM (F).
For electron microscopy, a 20 μl aliquot of the sample mixture was deposited onto a Formvar-coated copper mesh grid. The sample was allowed to stand for 60 s, and excess solution was wicked away. The samples were negatively stained with 2% (w/v) uranyl acetate. The excess stain was wicked away, and the sample was allowed to dry. The samples were viewed with an FEI Tecnai 12 BioTwin transmission electron microscope, and digital images were taken with an Advanced Microscopy Techniques camera.
Atomic force microscopy (“AFM”) was carried out using a lifeScan controller (LifeAFM Inc., Port Jefferson, N.Y.) interfaced with a MultiMode microscope (Digital Instruments, Santa Barbara, Calif.) fitted with an E seamier. With this instrument configuration, only a single contact of the AFM probe is made with the sample per pixel. Computer control of the cantilever position and angle during approach allows for detection of the sample height with minimum cantilever deflection, allowing for a minimum compressive force (30-100 piconewtons/nm) applied to the sample. AFM samples were prepared by adsorbing 20 μl of sample mixture to freshly cleaved ruby mica (S & J Trading, Inc., Glen Oaks, N.Y.) for 45 min to 1 h. The samples were rehydrated with ultrapure Milli-Q water (Millipore Corp., Billerica, Mass.) and immediately imaged. Samples were imaged using SuperSharpSilicon probes (SSS-CONT, NANOSENSORS, Neuchatel, Switzerland) that were modified for magnetic retraction by attaching samarium cobalt particles. The effective diameter of the SuperSharpSilicon probes was 4±1 nm at a height of 2 nm. Data analysis and graphics were performed using Interactive Display Language Version 5.0 (Research Systems, Inc., Boulder, Colo.). In the Z-scale bars, numbers in each color square indicate the Z-value at the middle of the range for that color.

[2] = in the presence of MBP at 3 hours

B1: myelin basic protein (protein)
chain: ASQKRPSQRHGSKYLATASTMDHARHGFLPRHRDTGILDSIGRFFGGDRGAPKRGSGKDSHHPARTAHYGSLPQKSHGRTQDENPVVHFFKNIVTPRTPPPSQGKGRGLSLSRFSWGAEGQRPGFGYGGRASDYKSAHKGFKGVDAQGTLSKIFKLGGRDSRSGSPMARR
notes: myelin basic protein, major form about 18.5 Kd (170 residues); purified protein
- Aβ42WT fibril formation by circular dichroism (Aβ42WT): prevents fibril formation
- binding to Dutch/Iowa CAA mutant Aβ relative to wild-type Aβ ([1]; SPR): bound more tightly
- Kd ([1]; surface plasmon resonance): 16.9 nM
- aggregation of MBP alone (TEM and AFM) (Dutch/Iowa Aβ40 (Aβ40DI); 1.56 μM MBP alone): does not aggregate significantly
- Aβ40DI fibril formation by TEM (Dutch/Iowa Aβ40 (Aβ40DI); 6 hours, sub-stoichiometric MBP): no evidence of fibril formation
- heights of Aβ40DI oligomers and protofibrils by AFM (Dutch/Iowa Aβ40 (Aβ40DI); [2]): ≈ 2 nm
- lengths of Aβ40DI oligomers and protofibrils by AFM (Dutch/Iowa Aβ40 (Aβ40DI); [2]): < 200 nm
